US20190241648A1 (STATEN BIOTECHNOLOGY B V, published 2019)
Ends that are not written are not given here.

Assays:
Experiment in all cases: peptide microarray
ApoC3 peptide … K51A = target: T1, ApoC3 peptide … K51A (human, thioether (positions not given here); also: cyclic constrained)
T1 peptide: ARGWVTDGFSSLA
In short: (§1)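 Peptide microarrays of ApoC3-derived peptides incubated with antibody samples, then stained with goat anti-human IgG (Fc) DyLight680 (1:5000) and anti-HA DyLight800 (1:2000) control. Read-out by fluorescence scanning at intensities 7/7 (red/green); a secondary-only pre-stain checked background, HA frame peptides served as quality control.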

ApoC3 peptide … G46C = target: T2, ApoC3 peptide … G46C (human, also: cyclic constrained)
T2 peptide: ARGWVTDCFSSLK
In short: as §1

ApoC3 peptide … L50C = target: T3, ApoC3 peptide … L50C (human, not fully specified; cyclic constrained)
T3 peptide: ARGWVTDGFSSCK
In short: as §1

ApoC3 peptide … G41D = target: T4, ApoC3 peptide … G41D (human, also: cyclic constrained)
T4 peptide: ARDWVTDGFSSLK
In short: as §1

ApoC3 peptide … G46D = target: T5, ApoC3 peptide … G46D (human, also: cyclic constrained)
T5 peptide: ARGWVTDDFSSLK
In short: as §1

ApoC3 peptide … F47E = target: T6, ApoC3 peptide … F47E (human, not fully specified (bridges); also: cyclic constrained)
T6 peptide: ARGWVTDGESSLK
In short: as §1

ApoC3 peptide … R40G = target: T7, ApoC3 peptide … R40G (human, not fully specified (bridges); also: cyclic constrained)
T7 peptide: AGGWVTDGFSSLK
In short: as §1

ApoC3 peptide … W42G = target: T8, ApoC3 peptide … W42G (human, not fully specified (bridges); also: cyclic constrained)
T8 peptide: ARGGVTDGFSSLK
In short: as §1

ApoC3 peptide … T44G = target: T9, ApoC3 peptide … T44G (human, not fully specified (bridges); also: cyclic constrained)
T9 peptide: ARGWVGDGFSSLK
In short: as §1

ApoC3 peptide … T44H = target: T10, ApoC3 peptide … T44H (human, not fully specified (bridges); also: cyclic constrained)
T10 peptide: ARGWVHDGFSSLK
In short: as §1

ApoC3 peptide … F47H = target: T11, ApoC3 peptide … F47H (human, not fully specified (bridges); also: cyclic constrained)
T11 peptide: ARGWVTDGHSSLK
In short: as §1

ApoC3 peptide … D45I = target: T12, ApoC3 peptide … D45I (human, cyclic constrained)
T12 peptide: ARGWVTIGFSSLK
In short: as §1

ApoC3 peptide … T44K = target: T13, ApoC3 peptide … T44K (human, not fully specified (bridges); also: cyclic constrained)
T13 peptide: ARGWVKDGFSSLK
In short: as §1

ApoC3 peptide … G46K = target: T14, ApoC3 peptide … G46K (human, not fully specified (bridges); also: cyclic constrained)
T14 peptide: ARGWVTDKFSSLK
In short: as §1

ApoC3 peptide … S49K = target: T15, ApoC3 peptide … S49K (human, cyclic constrained)
T15 peptide: ARGWVTDGFSKLK
In short: as §1

ApoC3 peptide … W42L = target: T16, ApoC3 peptide … W42L (human, not fully specified (bridges); also: cyclic constrained)
T16 peptide: ARGLVTDGFSSLK
In short: as §1

ApoC3 peptide … V43L = target: T17, ApoC3 peptide … V43L (human, not fully specified; cyclic constrained)
T17 peptide: ARGWLTDGFSSLK
In short: as §1

ApoC3 peptide … F47L = target: T18, ApoC3 peptide … F47L (human, not fully specified (bridges); also: cyclic constrained)
T18 peptide: ARGWVTDGLSSLK
In short: as §1

ApoC3 peptide … L50M = target: T19, ApoC3 peptide … L50M (human, not fully specified; cyclic constrained)
T19 peptide: ARGWVTDGFSSMK
In short: as §1

ApoC3 peptide … T44N = target: T20, ApoC3 peptide … T44N (human, not fully specified (bridges); also: cyclic constrained)
T20 peptide: ARGWVNDGFSSLK
In short: as §1

ApoC3 peptide … L50P = target: T21, ApoC3 peptide … L50P (human, not fully specified (bridges); also: cyclic constrained)
T21 peptide: ARGWVTDGFSSPK
In short: as §1

ApoC3 peptide … F47R = target: T22, ApoC3 peptide … F47R (human, also: cyclic constrained)
T22 peptide: ARGWVTDGRSSLK
In short: as §1

ApoC3 peptide … S48R = target: T23, ApoC3 peptide … S48R (human, not fully specified (bridges); also: cyclic constrained)
T23 peptide: ARGWVTDGFRSLK
In short: as §1

ApoC3 peptide … T44S = target: T24, ApoC3 peptide … T44S (human, not fully specified (bridges); also: cyclic constrained)
T24 peptide: ARGWVSDGFSSLK
In short: as §1

ApoC3 peptide … G46S = target: T25, ApoC3 peptide … G46S (human, thioether (positions not given here); also: cyclic constrained)
T25 peptide: ARGWVTDSFSSLK
In short: as §1

ApoC3 peptide … D45V = target: T26, ApoC3 peptide … D45V (human, cyclic constrained)
T26 peptide: ARGWVTVGFSSLK
In short: as §1

ApoC3 peptide … T44W = target: T27, ApoC3 peptide … T44W (human, not fully specified (bridges); also: cyclic constrained)
T27 peptide: ARGWVWDGFSSLK
In short: as §1

ApoC3 peptide … K51W = target: T28, ApoC3 peptide … K51W (human, not fully specified; cyclic constrained)
T28 peptide: ARGWVTDGFSSLW
In short: as §1

ApoC3 peptide … T44Y = target: T29, ApoC3 peptide … T44Y (human, not fully specified (bridges); also: cyclic constrained)
T29 peptide: ARGWVYDGFSSLK
In short: as §1

ApoC3 peptide … D45Y = target: T30, ApoC3 peptide … D45Y (human, not fully specified (bridges); also: cyclic constrained)
T30 peptide: ARGWVTYGFSSLK
In short: as §1

% of binding to wild-type peptide (ApoC3 peptide … K51A): 10.1%
% of binding to wild-type peptide (ApoC3 peptide … G46C): 0%
% of binding to wild-type peptide (ApoC3 peptide … L50C): 0%
% of binding to wild-type peptide (ApoC3 peptide … G41D): 19.4%
% of binding to wild-type peptide (ApoC3 peptide … G46D): 0%
% of binding to wild-type peptide (ApoC3 peptide … F47E): 0%
% of binding to wild-type peptide (ApoC3 peptide … R40G): 62.9%
% of binding to wild-type peptide (ApoC3 peptide … W42G): 107%
% of binding to wild-type peptide (ApoC3 peptide … T44G): 0%
% of binding to wild-type peptide (ApoC3 peptide … T44H): 0.92%
% of binding to wild-type peptide (ApoC3 peptide … F47H): 0%
% of binding to wild-type peptide (ApoC3 peptide … D45I): 2.04%
% of binding to wild-type peptide (ApoC3 peptide … T44K): 0%
% of binding to wild-type peptide (ApoC3 peptide … G46K): 0.24%
% of binding to wild-type peptide (ApoC3 peptide … S49K): 3.23%
% of binding to wild-type peptide (ApoC3 peptide … W42L): 312%
% of binding to wild-type peptide (ApoC3 peptide … V43L): 429%
% of binding to wild-type peptide (ApoC3 peptide … F47L): 4.56%
% of binding to wild-type peptide (ApoC3 peptide … L50M): 0.65%
% of binding to wild-type peptide (ApoC3 peptide … T44N): 2.49%
% of binding to wild-type peptide (ApoC3 peptide … L50P): 0%
% of binding to wild-type peptide (ApoC3 peptide … F47R): 0%
% of binding to wild-type peptide (ApoC3 peptide … S48R): 34.5%
% of binding to wild-type peptide (ApoC3 peptide … T44S): 1.12%
% of binding to wild-type peptide (ApoC3 peptide … G46S): 0%
% of binding to wild-type peptide (ApoC3 peptide … D45V): 1.21%
% of binding to wild-type peptide (ApoC3 peptide … T44W): 0%
% of binding to wild-type peptide (ApoC3 peptide … K51W): 0%
% of binding to wild-type peptide (ApoC3 peptide … T44Y): 0%
% of binding to wild-type peptide (ApoC3 peptide … D45Y): 0%
B1: anti-ApoC3 antibody 14C7 (antibody, V domains shown)
VH: QVQVQESGPGLVKPSQTLSLTCTVSGGSITTNSYYWSWIRQPPGKGLEWMGAIDYSGDTYYSPSLKSRTSISRDTSKNQFTLQLTSVTPEDTAVYYCVSRIPTGEYWGQGTQVTVSS
VL: QTVVTQEPSLSVSPGGTVTLTCGLNSGSVTSSNYPDWYQQTPGQAPRLLIYNTNSRHSGVPSRFSGSISGNKAALTITGAQPEDEADYYCALYMGSDSVVFGGGTHLTVL
notes: it was detected with goat anti-human IgG (Fc); also called mAb 14C7; llama antibody 14C7
